Experimental data from the supplement of paper PMC9233669.
Fewer inactive variants are shown than the library holds.

What was measured:
biotinyl-Leu-oxazolone = assay: self-aminoacylation, catalytic enhancement (BLO) (fold over background); higher = more active; k-Seq, kA / k0A0; sequences stand for … in GGGAAUGGAUCCACAUCUACGAAUUC…UUCACUGCAGACUUGACGAAGCUG
Method in brief: (§1)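 Mutagenized RNA pools with a 21-nt variable region (0.43 μM) were reacted with each biotinyl-aminoacyl-oxazolone at 2–1250 μM for 90 minutes at room temperature, in 50 μL HEPES/NaCl/KCl/MgCl2/CaCl2 buffer containing 5% acetonitrile at pH 6.9–7.0. RNA captured on streptavidin was quantified by triplicate qPCR and by Illumina sequencing. The fraction reacted for each sequence was fit to a pseudo-first-order model with bootstrapping, and catalytic enhancement is the median kA divided by the uncatalyzed rate, taken as the low-activity peak of a bimodal Gaussian fit.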

biotinyl-Phe-oxazolone = assay: self-aminoacylation, catalytic enhancement (BFO) (fold over background); higher = more active; k-Seq, kA / k0A0; sequences stand for … in GGGAAUGGAUCCACAUCUACGAAUUC…UUCACUGCAGACUUGACGAAGCUG
Method in brief: as §1

biotinyl-Val-oxazolone = assay: self-aminoacylation, catalytic enhancement (BVO) (fold over background); higher = more active; k-Seq, kA / k0A0; sequences stand for … in GGGAAUGGAUCCACAUCUACGAAUUC…UUCACUGCAGACUUGACGAAGCUG
Method in brief: as §1

biotinyl-Met-oxazolone = assay: self-aminoacylation, catalytic enhancement (BMO) (fold over background); higher = more active; k-Seq, kA / k0A0; sequences stand for … in GGGAAUGGAUCCACAUCUACGAAUUC…UUCACUGCAGACUUGACGAAGCUG
Method in brief: as §1

biotinyl-Ile-oxazolone = assay: self-aminoacylation, catalytic enhancement (BIO) (fold over background); higher = more active; k-Seq, kA / k0A0; sequences stand for … in GGGAAUGGAUCCACAUCUACGAAUUC…UUCACUGCAGACUUGACGAAGCUG
Method in brief: as §1

biotinyl-Trp-oxazolone = assay: self-aminoacylation, catalytic enhancement (BWO) (fold over background); higher = more active; k-Seq, kA / k0A0; sequences stand for … in GGGAAUGGAUCCACAUCUACGAAUUC…UUCACUGCAGACUUGACGAAGCUG
Method in brief: as §1

| Sequence | self-aminoacylation (biotinyl-Leu-oxazolone) | self-aminoacylation (biotinyl-Phe-oxazolone) | self-aminoacylation (biotinyl-Val-oxazolone) | self-aminoacylation (biotinyl-Met-oxazolone) | self-aminoacylation (biotinyl-Ile-oxazolone) | self-aminoacylation (biotinyl-Trp-oxazolone) |
| --- | --- | --- | --- | --- | --- | --- |
| AUUACCCUGGCCAUCUAGUGA [Fam2.1 aminoacylation ribozyme variant] | 5.69 | 28.6 | 2.79 | 4.68 | 2.93 | 4.43 |
| AAGUUAGCAAAUAGUCGCAAG [Fam3.1 aminoacylation ribozyme variant] | 1.32 | 2.37 | 1.23 | 1.44 | 1.42 | 1.36 |
| AAGUUUGCUGAUAGGCGCAAG [Fam3.1 aminoacylation ribozyme variant] | 0.707 | 2.19 | 0.765 | 1.26 | 0.732 | 0.544 |
| CCACACUUCAAGCAAUCCCUC [Fam1B.1 aminoacylation ribozyme variant] | 0.729 | 0.896 | 1.15 | 0.846 | 1.04 | 1.35 |
| GCACACUUCAAGCAAUCGGUA [Fam1B.1 aminoacylation ribozyme variant] | 2.26 | 2.95 | 2.5 | 1.98 | 2.84 | 3.53 |
| AUUCAACAAGGUCAUCGGGUG [Fam2.2 aminoacylation ribozyme variant] | 7.96 | 57.7 | 3.32 | 7.02 | 4.09 | 5.71 |
| AUUACCCUGGUCCACGAGUGA [Fam2.1 aminoacylation ribozyme variant] | 10.7 | 61.1 | 4.95 | 9.99 | 5.37 | 10.5 |
| AAGGUGGCUAAUAGUCGCAAG [Fam3.1 aminoacylation ribozyme variant] | 1.74 | 1.82 | 1.41 | 1.65 | 1.63 | 1.95 |
| AUUACCCUGGCGAUCGAGUGA [Fam2.1 aminoacylation ribozyme variant] | 4.77 | 24.3 | 2.69 | 4.06 | 2.12 | 4.59 |
| UCACACUCCAAGCAAUCGGUC [Fam1B.1 aminoacylation ribozyme variant] | 0.792 | 2.4 | 1.13 | 0.825 | 0.885 | 1.44 |
| AAGUUUGAUAUUAGUCGCAAG [Fam3.1 aminoacylation ribozyme variant] | 1.54 | 1.72 | 1.4 | 1.24 | 1.45 | 1.31 |
| CCACAAUUCAAGUAAUCGGUC [Fam1B.1 aminoacylation ribozyme variant] | 0.898 | 2.55 | 0.91 | 0.906 | 0.96 | 1.36 |
| AUUACACUGGUCCUCGAGUGA [Fam2.1 aminoacylation ribozyme variant] | 4.8 | 23.4 | 2.32 | 5.17 | 2.72 | 5.79 |
| AUUCACUUAGGUCAACGGGUG [Fam2.2 aminoacylation ribozyme variant] | 4.92 | 21.2 | 2.26 | 3.84 | 2.52 | 3.53 |
| CUACUAGAAACAAUCGGUCUG [Fam1A.1 aminoacylation ribozyme variant] | 0.619 | 0.401 | 0.639 | 0.687 | 0.673 | 0.625 |
| CCACCCUUCAAGCAAUCGCUC [Fam1B.1 aminoacylation ribozyme variant] | 2.55 | 0.977 | 2.28 | 1.87 | 1.65 | 2.73 |
| CUACGUCAAACAAUCCGUCUG [Fam1A.1 aminoacylation ribozyme variant] | 0.974 | 2.75 | 1.24 | 1.43 | 1.25 | 1.18 |
| CUACUGCAAACAAUCGUUCUG [Fam1A.1 aminoacylation ribozyme variant] | 0.647 | 0.732 | 0.735 | 0.818 | 0.702 | 0.574 |
| CUACACUUCAAGCAAUCGAUC [Fam1B.1 aminoacylation ribozyme variant] | 0.458 | 2.02 | 0.649 | 0.404 | 0.527 | 0.769 |
| AUUAGUCUGGUCAUCGAGUGA [Fam2.1 aminoacylation ribozyme variant] | 4.42 | 13 | 2.62 | 3.43 | 3.35 | 3.94 |
| AAUUAUGCUAAUAGUCGCAAG [Fam3.1 aminoacylation ribozyme variant] | 1.81 | 3.25 | 1.65 | 1.46 | 2.21 | 2.57 |
| CUAGUUCAAACAAUGGGUCUG [Fam1A.1 aminoacylation ribozyme variant] | 1.08 | 0.792 | 0.851 | 1.1 | 1.14 | 0.678 |
| CCACACUUCAAGUCAUCGGUC [Fam1B.1 aminoacylation ribozyme variant] | 1.31 | 0.991 | 1.32 | 1.04 | 1.05 | 0.698 |
| CUACUGCAAACUAUCGGUCUG [Fam1A.1 aminoacylation ribozyme variant] | 1.17 | 1.14 | 1.12 | 0.824 | 1.02 | 1.18 |
| CUACUUCAAACAAUCUGCCUG [Fam1A.1 aminoacylation ribozyme variant] | 0.957 | 1.33 | 0.751 | 1.04 | 0.913 | 0.605 |
| AUUACCCUGGUCAACCAGUGA [Fam2.1 aminoacylation ribozyme variant] | 6.76 | 39.2 | 3.78 | 6.42 | 3.9 | 7.15 |

| Sequence | self-aminoacylation (biotinyl-Leu-oxazolone) | self-aminoacylation (biotinyl-Phe-oxazolone) | self-aminoacylation (biotinyl-Val-oxazolone) | self-aminoacylation (biotinyl-Met-oxazolone) | self-aminoacylation (biotinyl-Ile-oxazolone) | self-aminoacylation (biotinyl-Trp-oxazolone) |
| --- | --- | --- | --- | --- | --- | --- |
| CUACUUCGAAGAAUCGGUCUG [Fam1A.1 aminoacylation ribozyme variant] | 0.757 | 0.287 | 0.839 | 0.933 | 0.875 | 0.567 |
| CUACUUGAAUCAAUCGGUCUG [Fam1A.1 aminoacylation ribozyme variant] | 0.705 | 0.466 | 0.782 | 0.811 | 0.857 | 0.582 |
| CUACUUCAAACAAUCGUCCUG [Fam1A.1 aminoacylation ribozyme variant] | 0.394 | 0.798 | 0.791 | 0.407 | 0.562 | 0.491 |
| AUUCACCUAGGUCAUCGGGUA [Fam2.2 aminoacylation ribozyme variant] | 101 | 605 | 32 | 71.8 | 37.2 | 49.5 |
| CUACAUCAAACAAUCGGUGUG [Fam1A.1 aminoacylation ribozyme variant] | 1.16 | 0.672 | 0.803 | 1.03 | 0.722 | 0.626 |
| AUUCACCUAAGUCAUCGGGUG [Fam2.2 aminoacylation ribozyme variant] | 12.8 | 74.2 | 5.58 | 9.66 | 5.75 | 8.93 |
| AUUCCCGUGGUCAUCGAGUGA [Fam2.1 aminoacylation ribozyme variant] | 9.05 | 63.3 | 5.81 | 8.45 | 5.17 | 11.3 |
| AUUCACAUAGGUCAACGGGUG [Fam2.2 aminoacylation ribozyme variant] | 5.9 | 28.8 | 2.81 | 4.31 | 2.85 | 4.39 |
| CUACUUCGAACAAUCCGUCUG [Fam1A.1 aminoacylation ribozyme variant] | 0.587 | 0.35 | 0.745 | 0.738 | 0.636 | 0.588 |
| AAGCUUGCUAAUAGUCGCACG [Fam3.1 aminoacylation ribozyme variant] | 1.6 | 4.41 | 1.76 | 1.29 | 1.81 | 1.33 |
| AUAACCCUGGUCAUCGAGUGA [Fam2.1 aminoacylation ribozyme variant] | 18.8 | 69.1 | 8.59 | 19.7 | 8.43 | 18.7 |
| ACUACCGUGGUCAUCGAGUGA [Fam2.1 aminoacylation ribozyme variant] | 5.21 | 18 | 3.29 | 5.28 | 3.41 | 6.91 |
| UUUACCCUGGUCAUCGAGUAA [Fam2.1 aminoacylation ribozyme variant] | 11.7 | 30.5 | 5.3 | 13.9 | 4.45 | 11.8 |
| AAGUUUGCUAACAGUCGCAAA [Fam3.1 aminoacylation ribozyme variant] | 1.23 | 2.28 | 0.995 | 1.06 | 1.43 | 1.58 |
| GUUCACCAAGGUCAUCGGGUG [Fam2.2 aminoacylation ribozyme variant] | 8.83 | 64.7 | 4.45 | 6.5 | 4.16 | 6 |
| AUUCAGCUAGGUCAUUGGGUG [Fam2.2 aminoacylation ribozyme variant] | 2.38 | 15 | 2.55 | 2.62 | 2.04 | 3.25 |
| AUGCACCUAGGUGAUCGGGUG [Fam2.2 aminoacylation ribozyme variant] | 5.11 | 30.7 | 3.71 | 4.8 | 4.96 | 6.5 |
| CCACACCUUAAGCAAUCGGUC [Fam1B.1 aminoacylation ribozyme variant] | 1.03 | 0.93 | 1.19 | 1.15 | 1.16 | 0.714 |
| CUACUUCAAACACUCGGUGUG [Fam1A.1 aminoacylation ribozyme variant] | 1.5 | 4.18 | 1.59 | 1.72 | 1.81 | 1.63 |
| AUUACCCUGGUCAUCGCGUGU [Fam2.1 aminoacylation ribozyme variant] | 9.06 | 51.7 | 4.84 | 8.31 | 4.14 | 8.25 |
| AUUCACCUCGGUCAUCGGUUG [Fam2.2 aminoacylation ribozyme variant] | 1.25 | 5.88 | 1.07 | 1.07 | 0.923 | 0.911 |
| CGACUUCAAACAAUCGGUCAG [Fam1A.1 aminoacylation ribozyme variant] | 0.772 | 8.58 | 0.883 | 0.707 | 0.915 | 4.08 |
| AUUCACCUAGGUCAUCGGGAG [Fam2.2 aminoacylation ribozyme variant] | 1.86 | 1.65 | 1.44 | 1.58 | 1.43 | 1.39 |
| AAGUUUCGUAAUAGUCGCAAG [Fam3.1 aminoacylation ribozyme variant] | 1.78 | 2.26 | 1.33 | 1.27 | 1.63 | 1.61 |
| AAGUUCGCUAAAAGUCGCAAG [Fam3.1 aminoacylation ribozyme variant] | 2.68 | 4.4 | 1.67 | 2.51 | 2.42 | 3.39 |
